Results reported in paper PMC4252486.

Columns and labels:
Assay in all cases: fluorescence anisotropy
NCp9 (NCp7-SP2) = NCp9 (NCp7-SP2) (HIV-1 NL4-3, UniProt P12493 378-448)
NCp15 WT (NCp7-SP2-p6) = NCp15 WT (NCp7-SP2-p6) (HIV-1 NL4-3, UniProt P12493 378-500)
[1] = target: NCp7 (mature nucleocapsid) (HIV-1 NL4-3, UniProt P12493 378-432)

B1: JL936 (20-nt ssDNA) (ssDNA)
DNA: AGCTGCTTTTTGCCTGTACT
Q: B1 was tested. Which Kd (NCp9 (NCp7-SP2)) did it give?
A: 45 nM

Q: What about the Kd (NCp15 WT (NCp7-SP2-p6)) of the same binder?
A: 151 nM

Q: What about the Kd [1] of the same binder?
A: 176 nM
